These results are taken from patent US20250026836A1 (UCB, published 2025).

For assay [1], the target named is HLA-E consensus sequence, co-expressed with B2m on HEK293 cells (human, UniProt P13747 22-358; P61769 21-119). The assay can be described thus: flow cytometry on HEK293 cells transfected with HLA-E consensus/B2m. In general terms: In flow cytometry, cells or beads pass a laser one at a time.
Assay [2] has as its target T1, HLA-G wild type, membrane-bound, co-expressed with B2m on transfected cells (HEK293 / HCT116) (human, UniProt P17693 25-338; P61769 21-119).
T1 construct: Same construct transiently expressed on HEK293 (Expi293) or HCT116 cells; the cell line is named under assay; also called HLA-G WT; HEK-HLAG
The assay can be described thus: flow cytometry, blocking of ILT4rbFc binding to HLA-G/B2m HCT116 cells.

In assay [3] the target is HLA-F consensus sequence, co-expressed with B2m on HEK293 cells (human, UniProt P30511 22-346; P61769 21-119). The assay can be described thus: flow cytometry on HEK293 cells transfected with HLA-F consensus/B2m.
Assay [4] deals with T1, HLA-G wild type, membrane-bound, …. The experiment in a line: flow cytometry on HEK293 cells transfected with HLA-G/B2m.
The target in assay [5] is human HLA-G and β2 microglobulin stably expressed on the HLAG-β2m-Reh cell line (human, UniProt P17693 25-338; P61769 21-119). The experiment in a line: cell-based or functional assay.
Assay [6] has as its target T1, HLA-G wild type, membrane-bound, …. The assay can be described thus: flow cytometry, blocking of ILT2rbFc binding to HLA-G/B2m HEK293 cells.
For assay [7], the target named is T2, HLA-G naturally expressed on human choriocarcinoma trophoblastic JEG3 cells (human, UniProt P17693 25-338; P61769 21-119).
T2 construct: whole, on cells; also called JEG3 WT
The assay can be described thus: flow cytometry on JEG3 cells, 1.5 ml IgG solution, geometric mean of three independent assays; geometric mean of three independent assays.

Assay [8] addresses T2, HLA-G naturally expressed on human …. The experiment in a line: flow cytometry, blocking of ILT2rbFc binding to JEG3 cells, large volume.
The target in assay [9] is T3, Human HLA-G ECD + B2m (soluble, AVItev10His tag) (human).
T3 construct: also called soluble HLA-G
The assay can be described thus: SPR, 25 C, hIgG1 captured via anti-human Fc, HLA-G ECD+B2m titrated from 50 nM, another assay. (In general: SPR reads the build-up and loss of mass on a sensor chip optically.)

The target in assay [10] is HLA-A consensus sequence, co-expressed with B2m on HEK293 cells (human, UniProt P04439 25-365; P61769 21-119). The assay can be described thus: flow cytometry on HEK293 cells transfected with HLA-A consensus/B2m.
Assay [11] addresses HLA-B consensus sequence, co-expressed with B2m on HEK293 cells (human, UniProt P01889 25-362 at identity 0.96); P61769 21-119). The assay can be described thus: flow cytometry on HEK293 cells transfected with HLA-B consensus/B2m.
For assay [12], the target named is HLA-C consensus sequence, co-expressed with B2m on HEK293 cells (human, UniProt P10321 25-366; P61769 21-119). The assay can be described thus: flow cytometry on HEK293 cells transfected with HLA-C consensus/B2m.
Assay [13] deals with T2, HLA-G naturally expressed on human …. The experiment in a line: flow cytometry on JEG3 WT cells, IgG1 100-0.05 nM.
Assay [14] shares this target. The assay can be described thus: flow cytometry, blocking of ILT2rbFc binding to JEG3 cells.
For assay [15], the target named is T3, Human HLA-G ECD + B2m (soluble, …). The assay can be described thus: SPR, 25 C, hIgG1 captured via anti-human Fc, HLA-G ECD+B2m 50 nM as analyte, second experiment.
Assay [16] concerns the target T2, HLA-G naturally expressed on human …. The assay can be described thus: flow cytometry on JEG3 cells, 1.5 ml IgG1 solution, 10-0.0005 nM.
Assay [17] addresses T3, Human HLA-G ECD + B2m (soluble, …). The experiment in a line: SPR, 25 C, hIgG1 captured via anti-human Fc, HLA-G ECD+B2m titrated from 50 nM.
For assay [18] the target is unchanged. The assay can be described thus: SPR, 25 C, hIgG1 captured via anti-human Fc, HLA-G ECD+B2m 50 nM as analyte, first experiment.

B1: Afucosylated HLA-G02 (antibody, human IgG1, kappa)
heavy: not shown
light: AIVLTQSPSSLSASVGDRVTITCQASQSIYSYLSWYQQKPGKAPKLLIYKASTLASGVPSRFSGSGSGTDFTLTISSLQPEDFATYYCQNHWNVGGNGWPFGGGTKVEIKRTVAAPSVFIFPPSDEQLKSGTASVVCLLNNFYPREAKVQWKVDNALQSGNSQESVTEQDSKDSTYSLSSTLTLSKADYEKHKVYACEVTHQGLSSPVTKSFNRGEC
modifications: afucosylated IgG1 (produced in FUT8 knock-out CHO-SXE cells)
notes: also called aF HLA-G02; Afucosylated HLA-02
With B1, the binding result in assay [1], in assay [3], in assay [10], in assay [11] and in [12] was “no binding (tested: IgG up to 100 nM)” each time. For the same molecule, the IC50 in assay [2] stood at 1.38 nM; in [6], 0.83 nM; in assay [8], 0.021 nM; in [14], 0.51 nM. The EC50 came out at 0.92 nM in [4], 0.021 nM in assay [7] and 0.2 nM in [13]. Besides, the “EC50 (nM) of CDC, lot 1” value in assay [5] is 2.51 nM. The “EC50 (nM) of CDC, lot 2” value in assay [5] worked out at 3.29 nM. Besides, in assay [5], the “EC50 (nM) of CDC, lot 3” value was 3.7 nM. In assay [9], the Kd worked out at 4.4 nM.

B2: HLA-G02 (humanised VR12389gL2gH16 IgG1, conventional i.e. fucosylated) (antibody)
heavy: not shown
light: B1 light
notes: also called conventional HLA-G02
For the molecule B2, the binding result in assay [1], in [3], in [10], in assay [11] and in assay [12] was “no binding (tested: IgG up to 100 nM)” in each case. Also, the figures for the IC50 in [2], in assay [6] and in assay [14] were 1.31 nM, 1.37 nM and 0.53 nM, respectively. Further, the Kd came to 5.42 nM in [15]; 0.02 nM in [16]; 4.3 nM in [9]; 5.09 nM in [17]; 4.78 nM in assay [18]. For the same molecule, the EC50 in [4] is 1.65 nM; in assay [13], 0.43 nM.

Usually IC50 stands for the point on the concentration scale where inhibition reaches its midpoint. A higher IC50 goes with lower potency. As a reminder, the EC50 is the concentration needed to bring the measured effect to its halfway point. As a reminder, the Kd is the equilibrium constant for the complex coming apart.
